For this series, the target named is TTE (TBF-EGFP fusion with the TEV protease recognition sequence ENLYFQG, flanked by 4 glycines on each side, between TBF and EGFP).

Experimental findings from US20100329990 are described below.

B1: TEV protease (Gibco-Life Technologies) (protein)
chain: GESLFKGPRDYNPISSTICHLTNESDGHTTSLYGIGFGPFIITNKHLFRRNNGTLLVQSLHGVFKVKNTTTLQQHLIDGRDMIIIRMPKDFPPFPQKLKFREPQREERICLVTTNFQTKSMSSMVSDTSCTFPSSDGIFWKHWIQTKDGQCGSPLVSTRDGFIVGIHSASNFTNTNNYFTSVPKNFMELLTNQEAQQWVSGWRLNADSVLWGGHKVFMSKPEEPFQPVKEATQLMNELVYSQ
For the protein B1, the “cleavage of TTE by TEV protease, followed by time-gated emission spectra (loss of Tb3+ to EGFP energy transfer)” value is reported as “The absence of the chromophore peak at 510 nm indicates that the energy transfer system from Tb^3+ to the chromophore is diminished”.
